Assay results from patent US20140010817A1 (Daiichi Sankyo, published 2014).

Tests used:
[1] = biological target: T1, RX protein purified from the culture supernatant of ADSF cells (murine mammary tumor virus (MMTV) …, UniProt P03374 99-474; P03374 475-651); test: SPR (ProteOn XPR36), antibody immobilised by amine coupling on a GLM chip, purified RX protein as analyte
T1 construct: also called purified RX protein; ADSF cell-derived RX protein
Description: (§1) Each antibody was immobilized on a sensor chip (Sensor Chip GLM; Bio-Rad Laboratories, Inc.) by the amine coupling method. The chip was blocked by the addition of 1 M ethanolamine hydrochloride (pH 8.5). ProteOn PBS/Tween, pH 7.4 (PBS, pH 7.4, 0.005% Tween 20) was used as a running buffer solution. The purified RX protein was serially diluted and interacted as an analyte with the immobilized monoclonal antibody to determine the binding affinity. The association rate constant ka and the dissociation rate constant kd were calculated by kinetics analysis using ProteOn Manager™.

[2] = biological target: T1, RX protein purified from the culture …; test: SPR (ProteOn XPR36), antibody immobilized by amine coupling, RX protein as analyte
Description: as §1

[3] = biological target: T1, RX protein purified from the culture …; test: SPR
[4] = biological target: T1, RX protein purified from the culture …; test: SPR (ProteOn XPR36) by the method of Example 4: antibody immobilized, RX protein as analyte
Description: as §1

B1: Monoclonal Antibody 2 (MAb2) (antibody, V domains shown)
VH: EVKLQESGPELKKPGETVKISCKASGYTFRDYPIHWVKQAPGKGLKWMGWINTETGEPTYADDFKGRFAFSLETSANTTYLQINNLKNEDTATYFCTPRFTYWGQGTLVTVSS
VL: DIVMTQTPSSLAVSVGEKVTMSCKSSQNLLYSGNQKNYLAWFQQKPGQSPKLLIYWASTRESGVPDRFTGSGSGTDFTLTLSSVKAEDLAVYYCQQSYRYPYTSGGGTKLEIKR
Kd [1]: 0.26 nM | koff [1]: 0.00021 s⁻¹ | kon [1]: 810000 M⁻¹ s⁻¹ | Kd [2]: ~0.1 nM

B2: chimerized MAb1 (rat-human chimeric antibody) (antibody, V domains shown)
VH: EVQLVESGGGLVQPGRSLKLSCVGSGFTFSDYYMAWVRQAPKKGLEWVASISYEGSNTNFGDSVKGRFTISRDSAKSTLYLQMNSLRSEDTATYYCARWAQTGYYFDYWGQGVMVTVSS
VL: DIQMTQSPASLSASLGETVTIECLASEDIYSNLAWYQQKPGKSPQLLIYYANSLNDGVPSRFSGSGSGTQFSLKINSLQSEDVSIYFCQQNYDSPYTFGAGAKLELKRA
Kd [3]: 0.22 nM

B3: Monoclonal Antibody 4 (MAb4) (antibody, V domains shown)
VH: QVKLEESGAELVKPGASVKMSCKASGYTFTIYNIHWVKQTPRQGLEWIGTIFPVNGDTSYNQRFKGKATLTADKSSNTAYMQLSGLTSEDSALYYCARSTTARAWFPYWGQGTLVTVSA
VL: HIVITQTQKFMSTSVGDRVSVTCKASQNVGSNVAWYQQKPGQSPKVLIYSASYRYSGVPDRFTGSGSGTDFTLTISNVQSEDLADFFCQQYNTSPFTFGGGTKLEIK
Kd [4]: 0.14 nM
